T1: recombinant human IL-1α (human, UniProt P01583 113-271)
T1 construct: Purified recombinant protein bought from R&D Systems; also called hIL-1α; rhIL-1α
T1 sequence: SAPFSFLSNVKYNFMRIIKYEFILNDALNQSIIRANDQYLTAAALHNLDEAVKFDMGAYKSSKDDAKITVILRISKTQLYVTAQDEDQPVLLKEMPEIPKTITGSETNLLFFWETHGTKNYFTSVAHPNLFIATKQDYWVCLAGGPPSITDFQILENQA


Experiments:
recombinant human IL-1α [1] = molecular target: T1, recombinant human IL-1α; experiment: SPR (Biacore)
recombinant human IL-1β [2] = molecular target: T2, recombinant human IL-1β (human, UniProt P01584 117-269); experiment: SPR (Biacore)
T2 construct: Recombinant protein; also called hIL-1β; rhIL-1β

recombinant human IL-1α [3] = molecular target: T1, recombinant human IL-1α; experiment: cell-based or functional assay
recombinant human IL-1β [4] = molecular target: T2, recombinant human IL-1β; experiment: cell-based or functional assay
recombinant human IL-1β [5] = molecular target: T2, recombinant human IL-1β; experiment: cell-based or functional assay; remark: listed apart in the source
recombinant human IL-1β [6] = molecular target: T2, recombinant human IL-1β; experiment: SPR (Biacore), mAb captured via goat anti-mouse IgG

| Binder | Kd (recombinant human IL-1α [1]) | Kd (recombinant human IL-1β [2]) | Potency (IC50) M, MRC-5 bioassay (recombinant human IL-1α [3]) | Potency (IC50) M, MRC-5 bioassay (recombinant human IL-1β [4]) | IC50 (M), MRC-5 bioassay (inhibition of IL-8 production) (recombinant human IL-1β [5]) | IC50 (M), MRC-5 bioassay (recombinant human IL-1β [4]) | Kd (recombinant human IL-1β [6]) |
| --- | --- | --- | --- | --- | --- | --- | --- |
| hIL-1α/β DVD3b-Ig (bispecific antibody, human IgG1, kappa, 1B12.4H4 (outer) - short linker - 18F4.2C8 (inner), b-a-C orientation) heavy: not shown light: ETTVTQSPASLSMAIGEKVTIRCITSTDIDVDMNWYQQKPGEPPKLLISQGNTLRPGVPSRFSSSGSGTDFVFIIENMLSEDVADYYCLQSDNLPLTFGAGTKLELKRTVAAPDIVMTQSQRFMSTSVGDRVSVTCKASQNVGTNIAWYQQKPGQSPRALIYSASYRYSGVPDRFTGSGSGTDFTLTISNVQSVDLAEYFCQQYTRYPLTFGGGTKLEIKRTVAAPSVFIFPPSDEQLKSGTASVVCLLNNFYPREAKVQWKVDNALQSGNSQESVTEQDSKDSTYSLSSTLTLSKADYEKHKVYACEVTHQGLSSPVTKSFNRGEC | 1.24 nM | 0.19 nM | 0.7 nM | 0.4 nM | – | – | – |
| murine monoclonal antibody 1B12.4H4 (antibody, V domains shown, Murine hybridoma mAb, anti-hIL-1β) VH: QVHLKESGPGLVAPSQSLSITCTVSGFSLTDYGVSWIRQPPGKGLEWLGLIWGGGDTYYNSPLKSRLSIRKDNSKSQVFLKMNSLQTDDTAVYYCAKQRTLWGYDLYGMDYWGQGTSVTVSS VL: ETTVTQSPASLSMAIGEKVTIRCITSTDIDVDMNWYQQKPGEPPKLLISQGNTLRPGVPSRFSSSGSGTDFVFIIENMLSEDVADYYCLQSDNLPLTFGAGTKLELKR | – | 0.261 nM | – | – | 5.3e-10 M | 6e-10 M | 0.213 nM |
| hIL-1α/β DVD4b-Ig (bispecific antibody, human IgG1, kappa, 1B12.4H4 (outer) - long linker - 18F4.2C8 (inner), b-a-C orientation) heavy: not shown light: ETTVTQSPASLSMAIGEKVTIRCITSTDIDVDMNWYQQKPGEPPKLLISQGNTLRPGVPSRFSSSGSGTDFVFIIENMLSEDVADYYCLQSDNLPLTFGAGTKLELKRTVAAPSVFIFPPDIVMTQSQRFMSTSVGDRVSVTCKASQNVGTNIAWYQQKPGQSPRALIYSASYRYSGVPDRFTGSGSGTDFTLTISNVQSVDLAEYFCQQYTRYPLTFGGGTKLEIKRTVAAPSVFIFPPSDEQLKSGTASVVCLLNNFYPREAKVQWKVDNALQSGNSQESVTEQDSKDSTYSLSSTLTLSKADYEKHKVYACEVTHQGLSSPVTKSFNRGEC | 0.56 nM | 0.128 nM | 0.35 nM | 0.5 nM | – | – | – |
| hIL-1α/β DVD6b-Ig (bispecific antibody, human IgG1, kappa, 6B12.4F6 (outer) - long linker - 6H3.1A4.3E11 (inner), b-a-C orientation) heavy: not shown light: QIVLTQSPAIMSASPGEKVTITCSASSSVSYMHWFQQKPGASPKLWIYSTSNLASGVPARFSGSGSGTSYSLTVSRMEAEDAATYYCQQRSTYPYTFGGGTKLEIKRTVAAPSVFIFPPQIVLTQSPALMSASPGEKVTMTCSASSSVNYMYWYQQKPRSSPKPWIYLTSNLASGVPARFSGSGSGTSYSLTISSMEAEDAATYYCQQWNSNPYTFGGGTKLEMKRRTVAAPSVFIFPPSDEQLKSGTASVVCLLNNFYPREAKVQWKVDNALQSGNSQESVTEQDSKDSTYSLSSTLTLSKADYEKHKVYACEVTHQGLSSPVTKSFNRGEC | 0.82 nM | 0.697 nM | 1 nM | 0.75 nM | – | – | – |
| hIL-1α/β DVD3a-Ig (bispecific antibody, human IgG1, kappa, 18F4.2C8 (outer) - short linker - 1B12.4H4 (inner), a-b-C orientation) heavy: not shown light: DIVMTQSQRFMSTSVGDRVSVTCKASQNVGTNIAWYQQKPGQSPRALIYSASYRYSGVPDRFTGSGSGTDFTLTISNVQSVDLAEYFCQQYTRYPLTFGGGTKLEIKRTVAAPETTVTQSPASLSMAIGEKVTIRCITSTDIDVDMNWYQQKPGEPPKLLISQGNTLRPGVPSRFSSSGSGTDFVFIIENMLSEDVADYYCLQSDNLPLTFGAGTKLELKRRTVAAPSVFIFPPSDEQLKSGTASVVCLLNNFYPREAKVQWKVDNALQSGNSQESVTEQDSKDSTYSLSSTLTLSKADYEKHKVYACEVTHQGLSSPVTKSFNRGEC | 0.837 nM | 63.7 nM | 0.75 nM | – | – | – | – |
| hIL-1α/β DVD6a-Ig (bispecific antibody, human IgG1, kappa, 6H3.1A4.3E11 (outer) - long linker - 6B12.4F6 (inner), a-b-C orientation) heavy: not shown light: QIVLTQSPALMSASPGEKVTMTCSASSSVNYMYWYQQKPRSSPKPWIYLTSNLASGVPARFSGSGSGTSYSLTISSMEAEDAATYYCQQWNSNPYTFGGGTKLEMKRTVAAPSVFIFPPQIVLTQSPAIMSASPGEKVTITCSASSSVSYMHWFQQKPGASPKLWIYSTSNLASGVPARFSGSGSGTSYSLTVSRMEAEDAATYYCQQRSTYPYTFGGGTKLEIKRRTVAAPSVFIFPPSDEQLKSGTASVVCLLNNFYPREAKVQWKVDNALQSGNSQESVTEQDSKDSTYSLSSTLTLSKADYEKHKVYACEVTHQGLSSPVTKSFNRGEC | 1.06 nM | 2.09 nM | 2.3 nM | 70 nM | – | – | – |
| hIL-1α/β DVD4a-Ig (bispecific antibody, human IgG1, kappa, 18F4.2C8 (outer) - long linker - 1B12.4H4 (inner), a-b-C orientation) heavy: not shown light: DIVMTQSQRFMSTSVGDRVSVTCKASQNVGTNIAWYQQKPGQSPRALIYSASYRYSGVPDRFTGSGSGTDFTLTISNVQSVDLAEYFCQQYTRYPLTFGGGTKLEIKRTVAAPSVFIFPPETTVTQSPASLSMAIGEKVTIRCITSTDIDVDMNWYQQKPGEPPKLLISQGNTLRPGVPSRFSSSGSGTDFVFIIENMLSEDVADYYCLQSDNLPLTFGAGTKLELKRTVAAPSVFIFPPSDEQLKSGTASVVCLLNNFYPREAKVQWKVDNALQSGNSQESVTEQDSKDSTYSLSSTLTLSKADYEKHKVYACEVTHQGLSSPVTKSFNRGEC | 0.701 nM | 0.93 nM | 0.35 nM | 10 nM | – | – | – |
| hIL-1α/β DVD5b-Ig (bispecific antibody, human IgG1, kappa, 6B12.4F6 (outer) - short linker - 6H3.1A4.3E11 (inner), b-a-C orientation) heavy: not shown light: QIVLTQSPAIMSASPGEKVTITCSASSSVSYMHWFQQKPGASPKLWIYSTSNLASGVPARFSGSGSGTSYSLTVSRMEAEDAATYYCQQRSTYPYTFGGGTKLEIKRTVAAPQIVLTQSPALMSASPGEKVTMTCSASSSVNYMYWYQQKPRSSPKPWIYLTSNLASGVPARFSGSGSGTSYSLTISSMEAEDAATYYCQQWNSNPYTFGGGTKLEMKRTVAAPSVFIFPPSDEQLKSGTASVVCLLNNFYPREAKVQWKVDNALQSGNSQESVTEQDSKDSTYSLSSTLTLSKADYEKHKVYACEVTHQGLSSPVTKSFNRGEC | 13.2 nM | 0.671 nM | 3.3 nM | 0.25 nM | – | – | – |
| murine monoclonal antibody 6B12.4F6 (antibody, V domains shown, Murine hybridoma mAb, anti-hIL-1β) VH: EVQLQQSGPELVKTGTSVKISCKASGYSFTGYYMHWVRQSHGKSLEWIGYISCYNGFTSYNPKFKGKATFTVDTSSSTAYIQFSRLTSEDSAVYYCARSDYYGTNDYWGQGTTLTVSS VL: QIVLTQSPAIMSASPGEKVTITCSASSSVSYMHWFQQKPGASPKLWIYSTSNLASGVPARFSGSGSGTSYSLTVSRMEAEDAATYYCQQRSTYPYTFGGGTKLEIKR | – | 0.554 nM | – | – | 3.2e-10 M | 4e-10 M | 0.554 nM |
| hIL-1α/β DVD5a-Ig (bispecific antibody, human IgG1, kappa, 6H3.1A4.3E11 (outer) - short linker - 6B12.4F6 (inner), a-b-C orientation) heavy: not shown light: QIVLTQSPALMSASPGEKVTMTCSASSSVNYMYWYQQKPRSSPKPWIYLTSNLASGVPARFSGSGSGTSYSLTISSMEAEDAATYYCQQWNSNPYTFGGGTKLEMKRTVAAPQIVLTQSPAIMSASPGEKVTITCSASSSVSYMHWFQQKPGASPKLWIYSTSNLASGVPARFSGSGSGTSYSLTVSRMEAEDAATYYCQQRSTYPYTFGGGTKLEIKRTVAAPSVFIFPPSDEQLKSGTASVVCLLNNFYPREAKVQWKVDNALQSGNSQESVTEQDSKDSTYSLSSTLTLSKADYEKHKVYACEVTHQGLSSPVTKSFNRGEC | 0.508 nM | 12.5 nM | 2.6 nM | 19 nM | – | – | – |

Source: patent US20120201781A1 (AbbVie / Abbott, published 2012)
